According to PMC2796264:

Biological target: 26S proteasome purified from rabbit muscle (rabbit (endogenous in muscle))

- hydrolysis of suc-GGL-amc by rabbit 26S proteasomes with ubiquitinated E6AP: < 4 fold
Substance: polyubiquitinated E6AP (from UniProt P0CG47 1-76)
